Data published in US7985715B2 (priority 2004, dated 2011).
Ends that are not written are not given here.

B1: artificial receptor No. 278 (n=5): peptide building blocks RM RY QM MY TY (designed binder)
peptide 1: KAGAGRGM
peptide 2: KAGAGRGY
peptide 3: KAGAGQGM
peptide 4: KAGAGMGY
peptide 5: KAGAGTGY
modifications: not fully specified; N-terminal acetyl (Ac-HN-); C-terminal methyl amide (-C(O)-NH-CH3)
B2: artificial receptor No. 1 (n=1): peptide building block RM (peptide)
peptide: KAGAGRGM-NHMe
modifications: not fully specified (N-terminus)
B3: artificial receptor No. 133 (n=4): peptide building blocks RM RY QH MY (designed binder)
peptide 1: KAGAGRGM-NHMe
peptide 2: Ac-KAGAGRGY-NHMe
peptide 3: Ac-KAGAGQGH-NHMe
peptide 4: Ac-KAGAGMGY-NHMe
modifications: not fully specified (N-terminus)
B4: artificial receptor No. 40 (n=2): peptide building blocks HM MY (designed binder)
peptide 1: Ac-KAGAGHGM-NHMe
peptide 2: Ac-KAGAGMGY-NHMe
B5: artificial receptor No. 93 (n=3): peptide building blocks RY MY DD (designed binder)
peptide 1: Ac-KAGAGRGY-NHMe
peptide 2: Ac-KAGAGMGY-NHMe
peptide 3: Ac-KAGAGDGD-NHMe
B6: artificial receptor No. 65 (n=3): peptide building blocks RM QY MY (designed binder)
peptide 1: KAGAGRGM-NHMe
peptide 2: Ac-KAGAGQGY-NHMe
peptide 3: Ac-KAGAGMGY-NHMe
modifications: not fully specified (N-terminus)
B7: artificial receptor No. 49 (n=3): peptide building blocks RM RY HM (designed binder)
peptide 1: KAGAGRGM-NHMe
peptide 2: Ac-KAGAGRGY-NHMe
peptide 3: Ac-KAGAGHGM-NHMe
modifications: not fully specified (N-terminus)
B8: artificial receptor No. 69 (n=3): peptide building blocks RM HM TY (designed binder)
peptide 1: KAGAGRGM-NHMe
peptide 2: Ac-KAGAGHGM-NHMe
peptide 3: Ac-KAGAGTGY-NHMe
modifications: not fully specified (N-terminus)
B9: artificial receptor No. 46 (n=3): peptide building blocks RM RY QH (designed binder)
peptide 1: KAGAGRGM-NHMe
peptide 2: Ac-KAGAGRGY-NHMe
peptide 3: Ac-KAGAGQGH-NHMe
modifications: not fully specified (N-terminus)
B10: artificial receptor No. 10 (n=2): peptide building blocks RM TY (designed binder)
peptide 1: KAGAGRGM-NHMe
peptide 2: Ac-KAGAGTGY-NHMe
modifications: not fully specified (N-terminus)
B11: artificial receptor No. 68 (n=3): peptide building blocks RM HM MY (designed binder)
peptide 1: KAGAGRGM-NHMe
peptide 2: Ac-KAGAGHGM-NHMe
peptide 3: Ac-KAGAGMGY-NHMe
modifications: not fully specified (N-terminus)
B12: artificial receptor No. 7 (n=1): peptide building block MY (peptide)
peptide: KAGAGMGY-NHMe
modifications: not fully specified (N-terminus)
B13: artificial receptor No. 56 (n=3): peptide building blocks RM QH MY (designed binder)
peptide 1: Ac-KAGAGRGM-NHMe
peptide 2: Ac-KAGAGQGH-NHMe
peptide 3: Ac-KAGAGMGY-NHMe
B14: artificial receptor No. 70 (n=3): peptide building blocks RM HM DD (designed binder)
peptide 1: KAGAGRGM-NHMe
peptide 2: Ac-KAGAGHGM-NHMe
peptide 3: Ac-KAGAGDGD-NHMe
modifications: not fully specified (N-terminus)
B15: artificial receptor No. 15 (n=2): peptide building blocks RM MY (designed binder)
peptide 1: Ac-KAGAGRGM-NHMe
peptide 2: Ac-KAGAGMGY-NHMe
B16: artificial receptor No. 89 (n=3): peptide building blocks RY HM MY (designed binder)
peptide 1: Ac-KAGAGRGY-NHMe
peptide 2: Ac-KAGAGHGM-NHMe
peptide 3: Ac-KAGAGMGY-NHMe
B17: artificial receptor No. 50 (n=3): peptide building blocks RM RY MY (designed binder)
peptide 1: KAGAGRGM-NHMe
peptide 2: Ac-KAGAGRGY-NHMe
peptide 3: Ac-KAGAGMGY-NHMe
modifications: not fully specified (N-terminus)
B18: artificial receptor No. 22 (n=2): peptide building blocks RY MY (designed binder)
peptide 1: Ac-KAGAGRGY-NHMe
peptide 2: Ac-KAGAGMGY-NHMe
B19: artificial receptor No. 72 (n=3): peptide building blocks RM MY DD (designed binder)
peptide 1: KAGAGRGM-NHMe
peptide 2: Ac-KAGAGMGY-NHMe
peptide 3: Ac-KAGAGDGD-NHMe
modifications: not fully specified (N-terminus)
B20: artificial receptor No. 61 (n=3): peptide building blocks RM QM MY (designed binder)
peptide 1: Ac-KAGAGRGM-NHMe
peptide 2: Ac-KAGAGQGM-NHMe
peptide 3: Ac-KAGAGMGY-NHMe
B21: artificial receptor No. 71 (n=3): peptide building blocks RM MY TY (designed binder)
peptide 1: KAGAGRGM-NHMe
peptide 2: Ac-KAGAGMGY-NHMe
peptide 3: Ac-KAGAGTGY-NHMe
modifications: not fully specified (N-terminus)

Molecular target: fluorescently labeled Anti-FLAG® M2 monoclonal antibody (Sigma)
Experiment: fluorescence microarray: peptides immobilized on epoxide slide, probed with fluorescently labeled antibody
Details: not given

Compared with B1, B2 is lower in Mean Fluorescence Units (fluorescence units): 65000 for the first, 47700 for the second.

Compared with B3, B4 is lower in Mean Fluorescence Units (fluorescence units): 47600 for the first, 46800 for the second.

Going from B5 to B6, the Mean Fluorescence Units (fluorescence units) falls from 46700 to 40900.

B7 and B8 are the same in Mean Fluorescence Units (fluorescence units): 39800 for the first, 39800 for the second.

First: B9
Second: B10
The Mean Fluorescence Units (fluorescence units) of the first is higher: 39500 for the first, 35100 for the second.

First: B11
Second: B12
The Mean Fluorescence Units (fluorescence units) of the first is lower: 34500 for the first, 64600 for the second.

Compared with B13, B14 is lower in Mean Fluorescence Units (fluorescence units): 32600 for the first, 32500 for the second.

Going from B15 to B16, the Mean Fluorescence Units (fluorescence units) falls from 64600 to 57200.

Compared with B17, B18 is lower in Mean Fluorescence Units (fluorescence units): 54400 for the first, 53500 for the second.

Compared with B19, B20 is lower in Mean Fluorescence Units (fluorescence units): 52100 for the first, 47800 for the second.

For B21, the Mean Fluorescence Units (fluorescence units) was 47800.

Tested on: Anti-FLAG® M2 monoclonal antibody
Experiment: not given
Type: binding
Details: not given

With “MET-ASP-TYR-LYS-ASP-HIS-ASP-GLY-ASP-TYR-LYS-ASP-HIS-ASP-ILE-ASP-TYR-LYS-ASP-ASP-ASP-ASP-LYS [3×FLAG® peptide]” the “binding of anti-FLAG Mab in the microarray (fluorescence)” value was “bound”.

Tested on: Anti-FLAG® M2 monoclonal antibody
Experiment: not given
Details: cited from earlier work

In the case of “ASP-TYR-LYS-ASP-ASP-ASP-ASP-LYS [FLAG® peptide]”, the “binding by the commercially available antibody” value is listed as “bound”.
